Earlier results on 1 substance are cited in article PMC6997106.

By Kd is commonly meant the constant that tells how readily two partners part at equilibrium.

For the data set, the target named is RAGE V-domain V-domain (Homo sapiens) (UniProt Q15109). As to the kind of experiment: SPR. A general note: Surface plasmon resonance follows binding to a sensor surface in real time, without labels.
Chain of RAGE V-domain V-domain (Homo sapiens) (Q15109 23-116): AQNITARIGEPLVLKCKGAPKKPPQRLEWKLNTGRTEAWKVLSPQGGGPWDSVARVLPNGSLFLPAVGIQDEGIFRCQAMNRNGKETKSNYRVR

Chain of S100B (P04271 2-92): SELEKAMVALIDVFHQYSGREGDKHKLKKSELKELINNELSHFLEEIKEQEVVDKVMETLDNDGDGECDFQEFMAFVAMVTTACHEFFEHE

Regarding S100B (from UniProt P04271), the Kd is 500 nM.
